This series is described as follows: label from the status in PepcDB records.
Regarding “MKFWRPGITGKLFLAIFATCIVLLISMHWAVRISFERGFIDYIKHGNEQRLQLLSDALGEQYAQHGNWRFLRNNDRFVFQILRSFEHDNSEDKPGPGMPPHGWRTQFWVVDQNNKVLVGPRAPIPPDGTRRPILVNGAEVGAVIASPVERLTRNTDINFDKQQRQTSWLIVALATLLAALATFLLARGLLAPVKRLVDGTHKLAAGDFTTRVTPTSEDELGKLAQDFNQLASTLEKNQQMRRDFMADISHELRTPLAVLRGELEAIQDGVRKFTPETVASLQAEVGTLTKLVDDLHQLSMSDEGALAYQKAPVDLIPLLEVAGGAFRERFASRGLKLQFSLPDSITVFGDRDRLMQLFNNLLENSLRYTDSGGSLQISAGQRDKTVRLTFADSAPGVSDDQLQKLFERFYRTEVPATVPAGSGLGLAICLNIVEAHNGRIIAAHSPFGGVSITVELPLERDLQREV”, the protein production result was “failed”.

“MMDCDHLLRLGMTAKKILENGKGILAADETPKTLGRRFEKLGITNTEENRRKFREILFSTKGIERYIGGVILNQETFEQTSGSGVPLTELLKKKGIEIGIKLDKGLIDYKEKEKISVGLEDLDLRCKSSAFKDATFAKWRSLFYFYDGIPSEDCINENCSILAKYAIICQKNGLVPIVEPEVFLEGDYSMKRSYEVTRQILSTLMKYLNYELVYIPGVLIKASYVTSGQLSNEKYTPKKVATFTLRALLSTIPCGIPGIVFLSGGHGSEDAIGFLNAINMERGCRTWSLSFSFARALTDGVLETWRGDDSNIEEAQKILLETSFKACRGAEGKLWDQE”: the protein production result was “not failed”.

Take “MEQDTQHVKPLQTKTDIHAVLASNGRIIYISANSKLHLGYLQGEMIGSFLKTFLHEEDQFLVESYFYNEHHLMPCTFRFIKKDHTIVWVEAAVEIVTTRAERTEREIILKMKVLEEETGH”: the protein production entry was “failed”.

Regarding “MSLPISLTDFFPIQGGMATRMVIEGANFGTDLSQIKVFFNQKEASILNVKNSIIYLLVPKLPGNDCIVTVKVGNQEARFTRNFQYIENYSVTTIAGQPGTNLFVEGTLAAAQFGPVQHLAIDDENNLFITERNGSDGKGTCSVLNEESGTVTFLFKASDNLNVPTVNAQTQNVYIPLDGGYTFYELNPVNQWIAKSRLVLHPSKEQQEAGMDDFEINWKHSLAFSRYDNMIYTRSYGGDLIKVDPETRVGQKIGNFFPNTDSFIVAHPTQPEILYIAYAAKHVIYTYNIETGEHKLFAGAFGQSGWNDGIATDAEFNSPRQMSLDMEGNIYIADSGNHCIRMIDKNGIVTTPIGQPGEAGYADGSPDMALLNDPRGVAVNSEGDVYIADLGNRCIRKLTLQLEHHHHHH”, the protein production result was “not failed”.

In the case of “QTPVYLDTSKPIEERVKDALSRMTLEEKVKMTHAQSKFSSPGVPRLGIPEVWATDGPHGIRPEVLWDEWDQAGWTNDSCIAYPALTCLSATWNPEMSYLYGKSIGEEARYRKKDILLGPGVNIYRTPLNGRNFEYMGEDPYLSSMMVVPYIKGVQENGVAACVKHYALNNQEFNRHTTNVHLSDRALYEIYLPAFKAAVQEGGAWAIMGAYNLYSFSEDTDSGKLYKTQHACHNKRLLQDILRKEWGFDGVVVSDWGGVHDTFQAISNGLDMEFGSWTNGLSAGTRNAYDNYYLAHPYLKLIQDGTVGTKELDEKVSNILRLIFRTSMNPH”, the protein production entry is recorded as “failed”.

As for “MSLSYRIDVLLFNKFETLDVFGPVEIFGNLQDDFELNFISSDGGLVESSQKVRVETSLYTRDENIEKILFVPGGSGTREKVNDDNFINFIGNMVKESKYIISVCTGSALLSKAGILNGKRATTNKRSFKWVTEQNEDVLWVKEARWVKDGNIYTSSGVSAGIDMTLGFIEDLIGKEKALEISRSIEYFWNEDSNYDPFSKIYGEGHHHHHH”, the protein production entry is “not failed”.

Regarding “MTAAPGTSMATPHVAGIAALLLQAHPSWTPDKVKTALIETADIVKPDEIADIAYGAGRVNAYKAINYDNYAKLVFTGYVANKGSQTHQFVISGASFVTATLYWDNANSDLDLYLYDPNGNQVDYSYTAYYGFEKVGYYNPTDGTWTIKVVSYSGSANYQVDVVSDGSLSQLEHHHHHH”, the protein production entry was “not failed”.

Regarding “MDSEGFSPSIYTDKTGHPTIGYGYNLSVYSYEGKRITKTYGLLTDILSYGWYKNLDAMRRMVILDLSYNLGLNGLLKFKQFIKAIEDKNYALAVERLQKSPYFNQVKKERQGIWKF”, the protein production entry is recorded as “failed”.

“MVSSAIVLGLTAATVLVFTGIGLFAARGRIDSVETYISARDSAGSGTLAATVIASMMGVWILLSPAEAGAAFGGLPAVLGYAIGSAIPLLLFIPVGARIREVMPAGHSLTEFAYARFGSGMYLLVLLVSVFYMFIFLAAEMTGIAGALALVADVPLWQTSLLIGGFVLVYTAYGGLLASIVTDTVQTLVILPLLAVGFGGALLSLGGTSEFHATVVSADPTLLDPGFGPGLEFGLYVAFALLGANMLNQGVWQRVYAADGDGALRRGMGIAAVVVVPMLLLSGLFGIAAAGLGLTESGSASIAFFLVVAEAFPTWVTLAVVVLAVLLVMSSADTMFNAIASVVTADLARLLDDPDQRTLWLGGRGLTVAVALAAMFIGAQGYSVLQLFLTADLLAAGVFVPFLAGLYTERLTGPGALVSGIAGLLVGFTYFPSLRGLMAAIPGVGSMLPAPSFLIAFAGATLVSAALTAVATLLGGADADLDSLGREVRALDDPVADGGSEQ”: the protein production entry is recorded as “failed”.

For “MKLKGVDNKILSNIFSLLSVQGALYIIPLITLPYLVRTLGVENYGVFGFSLAIVSYMSLIVDYGFNITATKTGAEIRYDKNKLSKLFFEILYSKLFMFIICSLSSILFSFFVENNIFNKDIIFVLMFTVFSQVIFPIWFFQAIEELKLVATLNFISKSLSVPLIFILINDEKDLIKLAVIHAITTIIPAIYSVYYIHIRKLVFFYKPSLNSIVSQIKNGWHIFLSGISISFYSTIVTVFLGIFSGATETGYFVAADRLRKAVQGISGPISQSFYPRINSLINTNKKSAINLIKVLYKIQFIVTFILSSLLFIFSEEIVEVLYGNGFVQSIVILKVLSYVPFFVSMSNASGICVIVSFGFNRLFSKIMMFSGGVGVALSFLLINSYGAIGSGLSILISEFIIAIIMIYFVIKLKLLKQ”, the protein production result is “failed”.

On to “MTSASAALPQQPGRTKAFLRLVMIEHSVFALPFAYIAALTAMFQWDRNIHWVRLLLVTVAMVGLRTFAMAANRIIDREIDARNPRTAHRELVTGAMSVRHAWTGALVALVFFLGAAALLNPLCLALAPIAVIPMVVYPYGKRFTNFPQAILGLAQAMGPVGGWLAISGEWSWDAVILGLAVGVWIGGFDLIYACQDVETDREVGVMSVPARFGIQAAIWGARVCHAITTALLVWYAFATDAGAFFWFGLVIVAGAFLYEHSIVKPHDLSRLNRAFFSTNGFIGISLFVCALGDLLVRGLTV”, for which the protein production result is on record as “failed”.

“ALGVGRSGAMDQTALSQANRIVGNPDHAAVIEILNGGLKLKVLQSTVVAVTGAASHIGVSYAGQAQVKVPDYSPIALDCGDLLYIDSPHAGLRHYLAIRGGIKTEKILGSASFDTLAELGTPPLKPHDFIYSAELSVGSVLLHEKCAQQLPKIGDVVEVDVILGPRTDWFEPESLTQFFQQQWLVTQESNRIGLRLSAGLPLKRQIHGELASEGTCTGALQIPPNGQPVLFMNDHPLTGGYPVLGAIAIDHLDRVAQIPPGCLIQFRQKSEILDLDKEST”: the protein production result is reported as “failed”.

In the case of “MSWWQDMDQRGGVSSPSGALASAEPAPASVTLAELLHLVQKGQEVPGLEKRHITATHGEPTASLLPRRPKPWEDAGSAASPCTIALDTRTQPPTIEERSRGSPAAQLDGGPRVS”, the protein production entry is on record as “failed”.

Consider “MEKTLETVPLERKKREKEQFRKLFIGGLSFETTEESLRNYYEQWGKLTDCVVMRDPASKRSRGFGFVTFSSMAEVDAAMAARPHSIDGRVVEPKRAVAREESG”, for which the protein production entry is “not failed”.

For “MKVLLIIPAYNEEENILRTIASIETFKQEVTHFQHELDYVVINDGSTDGTKQILEANQINAIHLVLNLGIGGAVQTGYKYALENEYDVAVQFDGDGQHDINSLPILLEPLAEGKCDFSIGSRFIPGNEASFQSTKMRRFGIRLLSFCIRMASGKTIYDVTSGYRAGNRKVIAFFAKRYPTNYPEPESIVHLIKKRFVIVERPVNMMERLGGVSSIRALASVKYMLEVGSAILIAAFMKEGDLEHHHHHH”, the protein production entry is given as “not failed”.

As to “MSDGPLLNDVTRAFAEAHRNEDVRDLALKTKRTADLDLPAALDQIAGWQIARNKLPQWAACADIVYPAHISMEQCSSQFTAQYKAEIARRLLRSLPQSAGQTANDATMTDLTGGFGVDFSYLARGFGHATYVERQSHLCELAAHNMAALGLTQAQVVCGDGVEYLRAMEPAQLIYIDPARRDEHGARTYAIEDCTPDVLALRDLLLAKARYVMIKLSPMLDWRKAVDDFAGTVAEVHIVSTGNECKELLLVLDGKAAGATSDAAAADTRAPHVYCVNDDQRLDYDAAAYTRGLRIGDAPLPHELRYLYEPNASIMKAGCFDVVEARFGAVQIGPSSHLFVSDEPVDGFPGRGFAIETIGGMGKKELKRLLSGLDRANIAVRNFPLTAPQLRKKLKLADGGDAYLFGTTMQGGDHVLIRTAKISR”, the protein production result is on record as “failed”.

On to “MPNRKASRNAYYFFVQEKIPELRRRGLPVARVADAIPYCSSDWALLREEEKEKYAEMAREWRAAQGKDPGPSEKQKPVFT”, for which the protein production entry is “not failed”.

For the sequence “MNVFQMLRLPDLVSLLNLICGIGSIAVAAQSDSFGFALILLLLAAVADGADGYIARRFKGGELGEQLDSLADAVSFGVAPALLIFLEFGVEEPIVGIFAGLYAVCGVLRLARFNSSISVPKAGFEGLPITAGCIMLVTYLLLGESFVIVDVLLALTLALSILMVSTVNYPKIRNIKILAFVAAVFGITMLLYFIDVQYMRVFSFLPFILMLSYLFSPFLKIPVISIATSKDYGNRKGAKAEGRKEKQ”, the protein production entry was “failed”.

Regarding “MTQPHQIILLAHGSSDARWCETFEKLAEPTVESIENAAIAYMELAEPSLDTIVNRAKGQGVEQFTVVPLFLAAGRHLRKDVPAMIERLEAEHGVTIRLAEPIGKNPRLGLAIRDVVKEELERSEH”, the protein production entry was “not failed”.

As for “MKIHLGLVVLVFAAMIAAPRSHAADSSAPRVALVIGNSKYPDADKPLSQAVSDARELADDLKRAGFDAELGEDLSGDAMRRAFDRLYQRTKPGAAALVFFSGFGIQSGRQSYLIPADAQIWTEPDVRRDGIALETVLNELNSRGASVKIALIDASRRNPFERRFRSFSAGLAPVIAPSGSLVMYAAALSAVVTDNDSARSPFVTALREEVRAAGRSAEEAFNRARTAVTRASRGEQVPWISSSLAEDFVFTPGAKADKPAVAEPAKQPAAAAPAPAESAKPPTAPAETKPPQAAEAKPSTSRDDDKLVLALASDPTVKSLTAQIADKPSDGNAYYRRGQVYASKGAYRSAIKDFDEAIRLNGKDVEAYNNRCWVRTVIGELEPALADCDQALQLRSNFVDALDSRGLLHLKSGRDKAAIADFDAALKVNPRLTSSLYGRGLARKRIGLASEGEIDLTTAKKLDPNIGKEFAGYGVP”, the protein production result is reported as “failed”.

Regarding “MTTPFVLAVPSKGRLQENAEAFFARAGLTLSKLGGARDYRGTIAGLDNVEIAYLSASEIAAQLARGTVHLGITGEDLIRESIADADKKVALIEGLGFGGANVVVAVPQAWIDVRTMADLDDVTTGFRAQHNRRMRVATKYINLTRNFFAAHGVVDYRIVESAGATEGAPAVGTAEMIVDITSSGATLVANGLKVLDDGVILRSQANLVASRAADWSADALETARVILDRIAARARANKYKEVRTRFAGCDASLLTEAHNRFGVVSPFGGPTSSGMITLHCPPAQLYALGSFLRDHGADTVSIASLDYVLDRENPLFAKLESFLRQ”, the protein production entry is given as “failed”.

Take “MDFVPSLPTLIAFTIAILLLAVTPGPDMTLWISRSLREGRAAGFMTLVGTNIGITVHTMLVAFGVAALIVASPTAFMILKTGGAAYLVWLAIQAIRKGSDFVMVKSTGEKAQASLKSALLNGIWVNLLNPKVIIFFMTFLPQFVSATDPHVTGKLIFLGIWSIIVALPIGIGIVVTADILSAWLQRNRKVLRGLDYTIAGVFSLFAVKIFFTQTR”: the protein production entry is “failed”.
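Note: failed if final PepcDB status was selected cloned or expressed and not failed if soluble or beyond.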
